Measurements from EP0251446B1, “Non-human Carbonyl hydrolase mutants, DNA sequences and vectors encoding same and hosts transformed with said vectors” (GENENCOR INTERNATIONAL, INC., priority 1986, dated 1988).
Substitutions are numbered along the chain they refer to. Numbers in names are those of the source.

How the values were obtained:
Assay type in all cases: biochemical, B. amyloliquefaciens
[1] = substrate: C[C@H](NC(=O)CCC(=O)O)C(=O)N[C@@H](C)C(=O)N1CCC[C@H]1C(=O)N[C@@H](CCCCN)C(=O)Nc1ccc([N+](=O)[O-])cc1; test: Kinetics of p-nitroanilide substrate hydrolysis, E166; conditions: other: Table XIV, 156 Glu / 166 Glu; value in parentheses; synthetic substrate with label as P-1 amino acid
Source text: (§1) Wild-type subtilisin was purified from B. subtilis culture supernatants expressing the B. amyloliquefaciens subtilisin gene (Wells, J.A., et al. (1983) Nucleic Acids Res. 11, 7911-7925) as previously described (Estell, D.A., et al. (1985) J. Biol. Chem. 260, 6518-6521). Details of the synthesis of tetrapeptide substrates having the form succinyl-L-AlaL-AlaL-ProL-[X]-p-nitroanilide (where X is the P1 amino acid) are described by DelMar, E.G., et al. (1979) Anal. Biochem. 99, 316-320. Kinetic parameters, Km(M) and kcat-(s-^1) were measured using a modified progress curve analysis (Estell, D.A., et al. (1985) J. Biol. Chem. 260, 6518-6521). Briefly, plots of rate versus product concentration were fit to the differential form of the rate equation using a non-linear regression algorithm. Errors in kcat and Km for all values reported are less than five percent. The various substrates in Table VIII are ranged in order of decreasing hydrophobicity. Nozaki, Y. (1971), J. Biol. Chem. 246, 2211-2217; Tanford C. (1978) Science 200, 1012).
(§2) The construction of subtilisin mutants containing the substitution of the ionic amino acids Asp, Asn, Gln, Lys and Ang are disclosed in EPO Publication No. 0130756. The present example describes the construction of the mutant subtilisin containing Glu at position 166 (E166) and presents substrate specificity data on these mutants. Further data on position 166 and 156 single and double mutants is presented infra.
(§3) pΔ166, described in Example 3, was digested with Sacl and Xmal. The double strand DNA cassette (underlined and overlined) of line 4 in Figure 13 contained the triplet GAA for the codon 166 to encode the replacement of Glu for Gly166. This mutant plasmid designated […] was propagated in BG2036 as described. This mutant subtilisin, together with the other mutants containing ionic substituent amino acids at residue 166, were isolated as described and further analyzed for variations in substrate specificity.
(§4) Each of these mutants was analyzed with the tetrapeptide substrates, succinyl-L-AlaL-AlaProL-X-p-nitroanilide, where X was Phe, Ala and Glu.

[2] = substrate: C[C@H](NC(=O)CCC(=O)O)C(=O)N[C@@H](C)C(=O)N1CCC[C@H]1C(=O)N[C@@H](CCC(N)=O)C(=O)Nc1ccc([N+](=O)[O-])cc1; test: as above; conditions: other: Table XIV, 156 Glu / 166 Glu; value in parentheses; synthetic substrate with label as P-1 amino acid
Source text: as §1, §2, §3, §4

[3] = substrate: CSCC[C@H](NC(=O)[C@@H]1CCCN1C(=O)[C@H](C)NC(=O)[C@H](C)NC(=O)CCC(=O)O)C(=O)Nc1ccc([N+](=O)[O-])cc1; test: as above; conditions: other: Table XIV, 156 Glu / 166 Glu; value in parentheses; synthetic substrate with label as P-1 amino acid
Source text: as §1, §2, §3, §4

[4] = substrate: C[C@H](NC(=O)CCC(=O)O)C(=O)N[C@@H](C)C(=O)N1CCC[C@H]1C(=O)N[C@@H](CCCCN)C(=O)Nc1ccc([N+](=O)[O-])cc1; test: Kinetics of p-nitroanilide substrate hydrolysis, N166; conditions: other: Table XIV, 156 Glu / 166 Asn; value in parentheses; synthetic substrate with label as P-1 amino acid
Source text: as §1, §2, §4

[5] = substrate: C[C@H](NC(=O)CCC(=O)O)C(=O)N[C@@H](C)C(=O)N1CCC[C@H]1C(=O)N[C@@H](CCC(=O)O)C(=O)Nc1ccc([N+](=O)[O-])cc1; test: as above; conditions: other: Table XIV, 156 Glu / 166 Asn; value in parentheses; synthetic substrate with label as P-1 amino acid
Source text: as §1, §2, §4

[6] = substrate: C[C@H](NC(=O)CCC(=O)O)C(=O)N[C@@H](C)C(=O)N1CCC[C@H]1C(=O)N[C@@H](CCC(N)=O)C(=O)Nc1ccc([N+](=O)[O-])cc1; test: as above; conditions: other: Table XIV, 156 Glu / 166 Asn; value in parentheses; synthetic substrate with label as P-1 amino acid
Source text: as §1, §2, §4

[7] = substrate: CSCC[C@H](NC(=O)[C@@H]1CCCN1C(=O)[C@H](C)NC(=O)[C@H](C)NC(=O)CCC(=O)O)C(=O)Nc1ccc([N+](=O)[O-])cc1; test: as above; conditions: other: Table XIV, 156 Glu / 166 Asn; value in parentheses; synthetic substrate with label as P-1 amino acid
Source text: as §1, §2, §4

[8] = substrate: C[C@H](NC(=O)CCC(=O)O)C(=O)N[C@@H](C)C(=O)N1CCC[C@H]1C(=O)N[C@@H](CCCCN)C(=O)Nc1ccc([N+](=O)[O-])cc1; test: Kinetics of p-nitroanilide substrate hydrolysis, Q166; conditions: other: Table XIV, 156 Glu / 166 Gln; value in parentheses; synthetic substrate with label as P-1 amino acid
Source text: as §1, §2, §4

[9] = substrate: C[C@H](NC(=O)CCC(=O)O)C(=O)N[C@@H](C)C(=O)N1CCC[C@H]1C(=O)N[C@@H](CCC(=O)O)C(=O)Nc1ccc([N+](=O)[O-])cc1; test: as above; conditions: other: Table XIV, 156 Glu / 166 Gln; value in parentheses; synthetic substrate with label as P-1 amino acid
Source text: as §1, §2, §4

[10] = substrate: C[C@H](NC(=O)CCC(=O)O)C(=O)N[C@@H](C)C(=O)N1CCC[C@H]1C(=O)N[C@@H](CCC(N)=O)C(=O)Nc1ccc([N+](=O)[O-])cc1; test: as above; conditions: other: Table XIV, 156 Glu / 166 Gln; value in parentheses; synthetic substrate with label as P-1 amino acid
Source text: as §1, §2, §4

[11] = substrate: CSCC[C@H](NC(=O)[C@@H]1CCCN1C(=O)[C@H](C)NC(=O)[C@H](C)NC(=O)CCC(=O)O)C(=O)Nc1ccc([N+](=O)[O-])cc1; test: as above; conditions: other: Table XIV, 156 Glu / 166 Gln; value in parentheses; synthetic substrate with label as P-1 amino acid
Source text: as §1, §2, §4

B1: B. amyloliquefaciens subtilisin variant E166 (Gly166 to Glu) (Bacillus amyloliquefaciens; G273E) (protein)
chain: AQSVPYGVSQIKAPALHSQGYTGSNVKVAVIDSGIDSSHPDLKVAGGASMVPSETNPFQDNNSHGTHVAGTVAALNNSIGVLGVAPSASLYAVKVLGADGSGQYSWIINGIEWAIANNMDVINMSLGGPSGSAALKAAVDKAVASGVVVVAAAGNEGTSGSSSTVEYPGKYPSVIAVGAVDSSNQRASFSSVGPELDVMAPGVSIQSTLPGNKYGAYNGTSMASPHVAGAAALILSKHPNWTNTQVRSSLENTTTKLGDSFYYGKGLINVQAAAQ
notes: at various amino acid residues within the mature form of the subtilisin molecule; made in house; host or cells: Bacillus subtilis BG2036
- Km [1]: 204 µM
- Km [2]: 1230 µM
- Km [3]: 525 µM

B2: B. amyloliquefaciens subtilisin variant N166 (Gly166 to Asn) (Bacillus amyloliquefaciens; G273N) (protein)
chain: B1 chain with E166N
notes: as for B1
- Km [4]: 1320 µM
- Km [5]: 6030 µM
- Km [6]: 724 µM
- Km [7]: 141 µM

B3: B. amyloliquefaciens subtilisin variant Q166 (Gly166 to Gln) (Bacillus amyloliquefaciens; G273Q) (protein)
chain: B1 chain with E166Q
notes: as for B1
- Km [8]: 708 µM
- Km [9]: 7590 µM
- Km [10]: 229 µM
- Km [11]: 43.7 µM
